In IntAct's records for PubMed 19037309:

B1: DELLA protein GAI (Arabidopsis thaliana (Mouse-ear cress)), Q9LQT8 (parent)
chain: MKRDHHHHHHQDKKTMMMNEEDDGNGMDELLAVLGYKVRSSEMADVAQKLEQLEVMMSNVQEDDLSQLATETVHYNPAELYTWLDSMLTDLNPPSSNAEYDLKAIPGDAILNQFAIDSASSSNQGGGGDTYTTNKRLKCSNGVVETTTATAESTRHVVLVDSQENGVRLVHALLACAEAVQKENLTVAEALVKQIGFLAVSQIGAMRKVATYFAEALARRIYRLSPSQSPIDHSLSDTLQMHFYETCPYLKFAHFTANQAILEAFQGKKRVHVIDFSMSQGLQWPALMQALALRPGGPPVFRLTGIGPPAPDNFDYLHEVGCKLAHLAEAIHVEFEYRGFVANTLADLDASMLELRPSEIESVAVNSVFELHKLLGRPGAIDKVLGVVNQIKPEIFTVVEQESNHNSPIFLDRFTESLHYYSTLFDSLEGVPSGQDKVMSEVYLGKQICNVVACDGPDRVERHETLSQWRNRFGSAGFAAAHIGSNAFKQASMLLALFNGGEGYRVEESDGCLMLGWHTRPLIATSAWKLSTN
partner: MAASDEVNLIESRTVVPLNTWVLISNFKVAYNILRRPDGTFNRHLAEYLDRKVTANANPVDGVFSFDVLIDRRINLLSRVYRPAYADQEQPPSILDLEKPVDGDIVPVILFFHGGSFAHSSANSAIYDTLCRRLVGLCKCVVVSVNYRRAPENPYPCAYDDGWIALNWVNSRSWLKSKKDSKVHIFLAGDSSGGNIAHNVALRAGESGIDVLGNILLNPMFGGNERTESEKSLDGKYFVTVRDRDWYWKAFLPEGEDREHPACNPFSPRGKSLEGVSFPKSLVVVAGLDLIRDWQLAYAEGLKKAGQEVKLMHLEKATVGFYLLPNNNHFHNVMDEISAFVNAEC

Variants of: B1
Settings: with gid1a_arath GID1A

| effect of a mutation on the interaction | Variant |
| --- | --- |
| disrupting interaction | MKRDHHHHHHQDKKTMMMNEEDDGNGMDELLAVLGAKVRSSEAADVAQKLEQLEVMMSNVQEDDLSQLATETVHYNPAELYTWLDSMLTDLNPPSSNAEYDLKAIPGDAILNQFAIDSASSSNQGGGGDTYTTNKRLKCSNGVVETTTATAESTRHVVLVDSQENGVRLVHALLACAEAVQKENLTVAEALVKQIGFLAVSQIGAMRKVATYFAEALARRIYRLSPSQSPIDHSLSDTLQMHFYETCPYLKFAHFTANQAILEAFQGKKRVHVIDFSMSQGLQWPALMQALALRPGGPPVFRLTGIGPPAPDNFDYLHEVGCKLAHLAEAIHVEFEYRGFVANTLADLDASMLELRPSEIESVAVNSVFELHKLLGRPGAIDKVLGVVNQIKPEIFTVVEQESNHNSPIFLDRFTESLHYYSTLFDSLEGVPSGQDKVMSEVYLGKQICNVVACDGPDRVERHETLSQWRNRFGSAGFAAAHIGSNAFKQASMLLALFNGGEGYRVEESDGCLMLGWHTRPLIATSAWKLSTN [Y36A;M43A] |
| decreasing interaction | MKRDHHHHHHQDKKTMMMNEEDDGNGMDELLAVLGAKVRSSEMADVAQKLEQLEVMMSNVQEDDLSQLATETVHYNPAELYTWLDSMLTDLNPPSSNAEYDLKAIPGDAILNQFAIDSASSSNQGGGGDTYTTNKRLKCSNGVVETTTATAESTRHVVLVDSQENGVRLVHALLACAEAVQKENLTVAEALVKQIGFLAVSQIGAMRKVATYFAEALARRIYRLSPSQSPIDHSLSDTLQMHFYETCPYLKFAHFTANQAILEAFQGKKRVHVIDFSMSQGLQWPALMQALALRPGGPPVFRLTGIGPPAPDNFDYLHEVGCKLAHLAEAIHVEFEYRGFVANTLADLDASMLELRPSEIESVAVNSVFELHKLLGRPGAIDKVLGVVNQIKPEIFTVVEQESNHNSPIFLDRFTESLHYYSTLFDSLEGVPSGQDKVMSEVYLGKQICNVVACDGPDRVERHETLSQWRNRFGSAGFAAAHIGSNAFKQASMLLALFNGGEGYRVEESDGCLMLGWHTRPLIATSAWKLSTN [Y36A] |
| disrupting interaction | MKRDHHHHHHQDKKTMMMNEEDDGNGMDELAAVLGYKARSSEMADVAQKLEQLEVMMSNVQEDDLSQLATETVHYNPAELYTWLDSMLTDLNPPSSNAEYDLKAIPGDAILNQFAIDSASSSNQGGGGDTYTTNKRLKCSNGVVETTTATAESTRHVVLVDSQENGVRLVHALLACAEAVQKENLTVAEALVKQIGFLAVSQIGAMRKVATYFAEALARRIYRLSPSQSPIDHSLSDTLQMHFYETCPYLKFAHFTANQAILEAFQGKKRVHVIDFSMSQGLQWPALMQALALRPGGPPVFRLTGIGPPAPDNFDYLHEVGCKLAHLAEAIHVEFEYRGFVANTLADLDASMLELRPSEIESVAVNSVFELHKLLGRPGAIDKVLGVVNQIKPEIFTVVEQESNHNSPIFLDRFTESLHYYSTLFDSLEGVPSGQDKVMSEVYLGKQICNVVACDGPDRVERHETLSQWRNRFGSAGFAAAHIGSNAFKQASMLLALFNGGEGYRVEESDGCLMLGWHTRPLIATSAWKLSTN [L31A;V38A] |
| disrupting interaction | MKRDHHHHHHQDKKTMMMNEEDDGNGMDELLAVLGYKVRSSEMADVAQKLRQLRVMMSNVQEDDLSQLATETVHYNPAELYTWLDSMLTDLNPPSSNAEYDLKAIPGDAILNQFAIDSASSSNQGGGGDTYTTNKRLKCSNGVVETTTATAESTRHVVLVDSQENGVRLVHALLACAEAVQKENLTVAEALVKQIGFLAVSQIGAMRKVATYFAEALARRIYRLSPSQSPIDHSLSDTLQMHFYETCPYLKFAHFTANQAILEAFQGKKRVHVIDFSMSQGLQWPALMQALALRPGGPPVFRLTGIGPPAPDNFDYLHEVGCKLAHLAEAIHVEFEYRGFVANTLADLDASMLELRPSEIESVAVNSVFELHKLLGRPGAIDKVLGVVNQIKPEIFTVVEQESNHNSPIFLDRFTESLHYYSTLFDSLEGVPSGQDKVMSEVYLGKQICNVVACDGPDRVERHETLSQWRNRFGSAGFAAAHIGSNAFKQASMLLALFNGGEGYRVEESDGCLMLGWHTRPLIATSAWKLSTN [E51R;E54R] |
